# In the supplement of paper PMC10567573:
# B1: C8orf76 (parent)
# chain: YCAKLCEPQWFYEETESSDDVEVL
# Variants of: B1
# Test: protein stability index of a GFP-peptide fusion (GPS, HEK-293T) (PSI 1-6); higher = more stable
# Conditions: c terminus: a fixed tail appended
# 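Further: lentivirally expressed fusions sorted by FACS into six bins by GFP to DsRed ratio, PSI derived from sequencing read proportions per bin multiplied by bin number.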
row,Variant,protein stability index
1,YCAKLCEPQWFYEETESSDDVCVL [E22C],2.06
2,YCAKLCEPQWFYEETESSDDVPVL [E22P],2.33
3,YCAKLCEPQWFYEETESSDDVHVL [E22H],2.06
4,YCAKLCEPQWFYEETESSDDVTVL [E22T],2.07
5,YCAKLCEPQWFYEETESSDDVNVL [E22N],2.14
6,YCAKLCEPQWFYEETESSDDVYVL [E22Y],1.63
7,YCAKLCEPQWFYEETESSDDVMVL [E22M],1.49
8,YCAKLCEPQWFYEETESSDDVIVL [E22I],2.03
9,YCAKLCEPQWFYEETESSDDVLVL [E22L],1.38
10,YCAKLCEPQWFYEETESSDDVVVL [E22V],1.36
11,YCAKLCEPQWFYEETESSDDVAVL [E22A],2.2
12,YCAKLCEPQWFYEETESSDDVGVL [E22G],2.31
13,YCAKLCEPQWFYEETESSDDVRVL [E22R],2.14
14,YCAKLCEPQWFYEETESSDDVFVL [E22F],1.6
15,YCAKLCEPQWFYEETESSDDVWVL [E22W],2.28
16,YCAKLCEPQWFYEETESSDDVQVL [E22Q],2.61
17,YCAKLCEPQWFYEETESSDDVSVL [E22S],2.31
18,YCAKLCEPQWFYEETESSDDVDVL [E22D],1.98
19,YCAKLCEPQWFYEETESSDDVKVL [E22K],2.21
20,YCAKLCEPQWFYEETESSQDVEVL [D19Q],2.2
21,YCAKLCEPQWFYEETESSPDVEVL [D19P],1.57
22,YCAKLCEPQWFYEETESSLDVEVL [D19L],1.76
23,YCAKLCEPQWFYEETESSTDVEVL [D19T],2.19
24,YCAKLCEPQWFYEETESSFDVEVL [D19F],2.1

row,Variant,protein stability index
1,YCAKLCEPQWFYEETESSEDVEVL [D19E],2.35
2,YCAKLCEPQWFYEETESSKDVEVL [D19K],2.3
3,YCAKLCEPQWFYEETESSRDVEVL [D19R],2
4,YCAKLCEPQWFYEETESSCDVEVL [D19C],1.4
5,YCAKLCEPQWFYEETESSVDVEVL [D19V],2.07
6,YCAKLCEPQWFYEETESSSDVEVL [D19S],2.08
7,YCAKLCEPQWFYEETESSADVEVL [D19A],2.15
8,YCAKLCEPQWFYEETESSHDVEVL [D19H],2.25
9,YCAKLCEPQWFYEETESSWDVEVL [D19W],1.41
10,YCAKLCEPQWFYEETESSNDVEVL [D19N],2.26
11,YCAKLCEPQWFYEETESSYDVEVL [D19Y],1.76
12,YCAKLCEPQWFYEETESSMDVEVL [D19M],1.58
13,YCAKLCEPQWFYEETESSIDVEVL [D19I],1.76
14,YCAKLCEPQWFYEETESSGDVEVL [D19G],2.09
15,YCAKLCEPQWFYEETESSDNVEVL [D20N],2.05
16,YCAKLCEPQWFYEETESSDMVEVL [D20M],2.02
17,YCAKLCEPQWFYEETESSDFVEVL [D20F],2.04
18,YCAKLCEPQWFYEETESSDRVEVL [D20R],1.5
19,YCAKLCEPQWFYEETESSDHVEVL [D20H],1.91
20,YCAKLCEPQWFYEETESSDWVEVL [D20W],1.79
21,YCAKLCEPQWFYEETESSDGVEVL [D20G],1.37
22,YCAKLCEPQWFYEETESSDLVEVL [D20L],1.67
23,YCAKLCEPQWFYEETESSDIVEVL [D20I],1.74
24,YCAKLCEPQWFYEETESSDYVEVL [D20Y],1.76

row,Variant,protein stability index
1,YCAKLCEPQWFYEETESSDSVEVL [D20S],2.29
2,YCAKLCEPQWFYEETESSDEVEVL [D20E],1.92
3,YCAKLCEPQWFYEETESSDKVEVL [D20K],2.01
4,YCAKLCEPQWFYEETESSDQVEVL [D20Q],1.86
5,YCAKLCEPQWFYEETESSDPVEVL [D20P],1.81
6,YCAKLCEPQWFYEETESSDCVEVL [D20C],2.49
7,YCAKLCEPQWFYEETESSDTVEVL [D20T],2.18
8,YCAKLCEPQWFYEETESSDVVEVL [D20V],1.86
9,YCAKLCEPQWFYEETESSDAVEVL [D20A],2.27
10,YCAKLCEPQWFYEETESSDDVEVE [L24E],2.62
11,YCAKLCEPQWFYEETESSDDVEVA [L24A],2.45
12,YCAKLCEPQWFYEETESSDDVEVC [L24C],2.9
13,YCAKLCEPQWFYEETESSDDVEVG [L24G],2.54
14,YCAKLCEPQWFYEETESSDDVEVD [L24D],2.56
15,YCAKLCEPQWFYEETESSDDVEVF [L24F],2.43
16,YCAKLCEPQWFYEETESSDDHEVL [V21H],2.27
17,YCAKLCEPQWFYEETESSDDYEVL [V21Y],2.48
18,YCAKLCEPQWFYEETESSDDFEVL [V21F],2.12
19,YCAKLCEPQWFYEETESSDDKEVL [V21K],2.99
20,YCAKLCEPQWFYEETESSDDREVL [V21R],2.27
21,YCAKLCEPQWFYEETESSDDMEVL [V21M],2.19
22,YCAKLCEPQWFYEETESSDDDEVL [V21D],2.53
23,YCAKLCEPQWFYEETESSDDCEVL [V21C],2.41
24,YCAKLCEPQWFYEETESSDDAEVL [V21A],2.3

row,Variant,protein stability index
1,YCAKLCEPQWFYEETESSDDSEVL [V21S],2.46
2,YCAKLCEPQWFYEETESSDDGEVL [V21G],2.56
3,YCAKLCEPQWFYEETESSDDIEVL [V21I],2.39
4,YCAKLCEPQWFYEETESSDDLEVL [V21L],2.07
5,YCAKLCEPQWFYEETESSDDNEVL [V21N],2.35
6,YCAKLCEPQWFYEETESSDDQEVL [V21Q],2.53
7,YCAKLCEPQWFYEETESSDDPEVL [V21P],2.38
8,YCAKLCEPQWFYEETESSDDWEVL [V21W],2.04
9,YCAKLCEPQWFYEETESSDDEEVL [V21E],2.43
10,YCAKLCEPQWFYEETESSDDTEVL [V21T],3.28
11,YCAKLCEPQWFYEERESSDDVEVL [T15R],2.9
12,YCAKLCEPQWFYEEKESSDDVEVL [T15K],2.08
13,YCAKLCEPQWFYEELESSDDVEVL [T15L],1.75
14,YCAKLCEPQWFYEEIESSDDVEVL [T15I],1.91
15,YCAKLCEPQWFYEEEESSDDVEVL [T15E],2.72
16,YCAKLCEPQWFYEEMESSDDVEVL [T15M],1.91
17,YCAKLCEPQWFYEEGESSDDVEVL [T15G],2.27
18,YCAKLCEPQWFYEEFESSDDVEVL [T15F],2.02
19,YCAKLCEPQWFYEENESSDDVEVL [T15N],2.08
20,YCAKLCEPQWFYEEDESSDDVEVL [T15D],2.9
21,YCAKLCEPQWFYEECESSDDVEVL [T15C],2.16
22,YCAKLCEPQWFYEEHESSDDVEVL [T15H],2.12
